Measured values from US20210371489A1, “SITE 2 SINGLE-CHAIN INSULIN ANALOGUES” (Case Western Reserve University, priority 2018, published 2021).
Positions count from the first letter of the chain named.

B1: single-chain insulin EA8, EA14, QA17, PE, EAGPRR (ligand)
chain: FVNQHLCGSHLVEALYLVCGERGFFYTPETEAGPRRGIVEQCCESICSLEQLQNYCN
notes: Single-chain insulin analogue (B domain, 6-residue C domain, A domain)
B2: single-chain insulin HA8, EA14, QA17, PE, EAGPRR (ligand)
chain: B1 chain with E44H
B3: single-chain insulin EA8, EA14, RA17, EP, EAGPRR (ligand)
chain: B1 chain with P28E, E29P, Q53R
B4: single-chain insulin EA8, EA14, RA17, PE, EAGPRR (ligand)
chain: B1 chain with Q53R
B5: single-chain insulin HA8, EA14, NB17, PE, EEGPRR (ligand)
chain: B1 chain with L17N, A32E, E44H, Q53E
B6: single-chain insulin HA8, EA14, FB17, PE, EEGPRR (ligand)
chain: B1 chain with L17F, A32E, E44H, Q53E

Legend:
insulin receptor (IR) = insulin receptor (IR) (Homo sapiens, UniProt P06213); conditions: cited from earlier work
[1] = system: diabetic Sprague-Dawley rats; conditions: diabetic (streptozotocin) Sprague-Dawley rats; cited from earlier work
[2] = target: T1, FLAG epitope-tagged holoreceptor of human type 1 insulin-like growth factor receptor (human, UniProt P08069 31-1367, limits assumed); experiment: ratio of dissociation constants from competitive displacement of 125I-IGF-I on plate-captured FLAG-tagged hIGFR; relative to insulin lispro
T1 construct: mature; Holoreceptor captured on 96 well plates coated with anti-FLAG monoclonal antibody; The natural receptor is processed from one precursor into alpha and beta chains; also called hIGFR; IGF-1R
Description: Cross-reactivity of the single-chain insulin analogues with IGF-1R was studied using a FLAG epitope-tagged holoreceptor to human type 1 insulin-like growth factor receptor (hIGFR) bound to 96 well plates coated with anti-FLAG monoclonal antibody. […] This is used as a marker for mitogenic potential, where less IGF-R affinity is interpreted as lower mitogenic potential.

| Molecule | receptor-binding affinity relative to KP-insulin (insulin receptor (IR)) | in vivo potency [1] | IGF1-R (Rel. Aff.) [2] [%] |
| --- | --- | --- | --- |
| 2-F-PheB24-DKP-insulin: derivative of DKP-insulin containing ortho-monofluoro-phenylalanine at position B24 | ca. 35(±5) % | potency and duration of signaling are enhanced | – |
| B1 | – | – | 11 |
| B2 | – | – | 18 |
| B3 | – | – | 5 |
| B4 | – | – | 25 |
| B5 | – | – | 2 |
| B6 | – | – | 16 |
